Assay results published in PMC9130890 (Advanced Science, 2022).

Tests used:
HIV-1 BG505 Env trimer = HIV-1 BG505 Env trimer (HIV-1 (strain BG505), UniProt Q2N0S6)
[1] = target: HIV-1 C1080 Env trimer, stabilized in the prefusion-closed state (HIV-1 (CRF01_AE strain C1080))

B1: J038 (antibody, V domains shown)
VH: QLHLQESGPGLVRPSETLSLTCDVSGGAFNDAYCSWIRRFPGGGLEWIGRISGRDGYVESNPALTGRVTMSIDATWKKIVLRLTSMTASDTATYFCAGETPEDDFGYYQPYFKTWGQGLGVTVSS
VL: DIQLIQSPSSVSASLGDRVTITCRSTQGIGSDLAWYQATPGTAPKLLIYNSFALHKGVPSRFSGSGSGTEFSLTITGLQPEDFATYYCQHYRRLPLTFGGGTNIEVK
HIV-1 BG505 Env trimer
  binding result: binds
[1]
  binding result: binds
